Reference: patent US20210052649A1 (FRED HUTCHINSON CANCER RESEARCH CENTER, published 2021)

Target: T1, ROR1-protein (human, UniProt Q01973 30-403, limits assumed)
T1 construct: also called orphan tyrosine kinase receptor ROR1
Test: assay not described; monovalent binding affinity for ROR1 compared with mAb 2A2

T1 sequence (Q01973 30-403 limits assumed): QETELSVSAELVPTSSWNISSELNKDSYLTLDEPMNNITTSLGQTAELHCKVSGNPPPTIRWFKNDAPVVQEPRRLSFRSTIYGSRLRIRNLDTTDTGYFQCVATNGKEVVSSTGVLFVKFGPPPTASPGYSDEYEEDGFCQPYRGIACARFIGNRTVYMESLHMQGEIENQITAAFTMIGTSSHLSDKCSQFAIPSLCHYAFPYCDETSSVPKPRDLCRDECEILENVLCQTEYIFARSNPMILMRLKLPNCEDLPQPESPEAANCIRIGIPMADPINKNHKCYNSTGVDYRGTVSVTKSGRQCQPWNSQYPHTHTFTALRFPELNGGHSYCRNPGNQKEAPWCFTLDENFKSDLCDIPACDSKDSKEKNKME

fold higher monovalent binding affinity than 2A2: > 50 fold
B1: anti-ROR1 monoclonal antibody R12 (antibody, V domains shown)
VH: QEQLVESGGRLVTPGGSLTLSCKASGFDFSAYYMSWVRQAPGKGLEWIATIYPSSGKTYYATWVNGRFTISSDNAQNTVDLQMNSLTAADRATYFCARDSYADDGALFNIWGPGTLVTISS
VL: ELVLTQSPSVSAALGSPAKITCTLSSAHKTDTIDWYQQLQGEAPRYLMQVQSDGSYTKRPGVPDRFSGSSSGADRYLIIPSVQADDEADYYCGADYIGGYVFGGGTQLTVTG
notes: also called mAb R12; R12 mAb
